Results from paper PMC5524880, “Mechanisms and Specificity of Phenazine Biosynthesis Protein PhzF” (Scientific Reports, 2017).

What was measured:
[1] = substrate: CCOC1C=CC=C(C(=O)O)C1N; test: purified protein; assay type: biochemical, Pseudomonas fluorescens; settings: 50 mM sodium phosphate pH 7.5, 1% DMSO, 25 °C, 1000 nM PhzF, racemic substrate
[2] = substrate: N[C@H]1C(C(=O)O)=CC=C[C@@H]1O; test: purified protein; assay type: biochemical, Pseudomonas fluorescens; settings: 50 mM sodium phosphate pH 7.5, 1% DMSO, 25 °C
[3] = 200 nM PhzF, labelled compound (deuterated at C3)

B1: PhzF (Pseudomonas fluorescens) (protein)
chain: MHNYVIIDAFASVPLEGNPVAVFFDADDLPPAQMQRIAREMNLSESTFVLKPRNGGDALIRIFTPVNELPFAGHPLLGTAIALGAHTDNHRLYLETQMGTIAFELERQNGSVIAASMDQPIPTWTALGRDAELLKALGISDSTFPIEIYHNGPRHVFVGLPSIDALSALHPDHRALSNFHDMAINCFAGAGRRWRSRMFSPAYGVVEDAATGSAAGPLAIHLARHGQIEFGQPVEILQGVEIGRPSLMFAKAEGRAEQLTRVEVSGNGVTFGRGTIVL
notes: N-terminal His6 tag, expressed in E. coli, homodimer
B1 showed a Km [1] of 1842 ± 355 µM, a kcat [1] of 0.12 ± 0.02 s⁻¹ and a Km ([2]; 40 nM PhzF dimer) of 517 ± 57 µM. It also gave a kcat ([2]; 40 nM PhzF dimer) of 3.23 ± 0.19 s⁻¹, a Km [2, 3] of 311 ± 14 µM and a kcat [2, 3] of 0.34 ± 0.01 s⁻¹.
